Biological target: CD64, high affinity human FcgammaRI receptor, expressed on K562 cells (K64 cells) (human)
Assay: flow cytometry of K64 cells loaded with FITC-labelled IgG2a for 1 h at 4 C, quantified with Immuno-Brite beads

## IgG2a-FITC-labeled antibodies (antibody)
  antibodies bound to each cell (antibodies bound to each cell): 2000 to 6000

From patent publication US20140212446A1
